Data reported in paper PMC5485733, “An Amyloidogenic Sequence at the N-Terminus of the Androgen Receptor Impacts Polyglutamine Aggregation” (Biomolecules, 2017).

Biological target: the molecule itself
Experiment: SEC + other: mass spectrometry; HiLoad 16/60 Superdex 75, 20 mM sodium phosphate pH 6.5, 150 mM NaCl, with or without 2 mM DTT; dimer fraction decreased with DTT; fractions identified by mass spectrometry; monomer to covalent dimer

B1: His-SUMO-peptide fusion protein (SUMO_SAPKELCKAVSVSM) (domain or fragment, human)
chain: SAPKELCKAVSVSM
notes: three amino acids Ser-Ala-Pro linker inserted between the SUMO tag and the peptide; The peptide is the C-terminus of the chain (stop codon after it); The dimer is covalent; Printed mass 15,819 (printed as kDa); source: E. coli Rosetta (DE3), purified (Ni-NTA agarose, SEC); not shown: His, N-terminal, kept; SUMO, N-terminal, kept
  stoichiometry N: 2
